# Reference: patent publication US20090325259A1, “USE OF ADHESION MOLECULES AS BOND STRESS-ENHANCED NANOSCALE BINDING SWITCHES” (priority 2002, published 2009)
# B1: FimH-j96-Q32L:S124A: FimH-j96 with combined Q32L and S124A mutations in the loop regions near the linker chain (protein)
# chain: FACKTANGTAIPIGGGSANVYVNLAPAVNVGLNLVVDLSTQIFCHNDYPETITDYVTLQRGSAYGGVLSSFSGTVKYNGSSYPFPTTSETPRVVYNSRTDKPWPVALYLTPVSSAGGVAIKAGALIAVLILRQTNNYNSDDFQFVWNIYANNDVVVPTGGCDVSARDVTVTLPDYPGSVPIPLTVYCAKSQNLGYYLSGTTADAGNSIFTNTASFSPAQGVGVQLTRNGTIIPANNTVSLGAVGTSAVSLGLTANYARTGGQVTAGNVQSIIGVTFVYQ
# B2: V155P: point mutation V155P engineered into the FimH-j96 and FimH-f18 variants (protein)
# chain: FACKTANGTAIPIGGGSANVYVNLAPAVNVGQNLVVDLSTQIFCHNDYPETITDYVTLQRGSAYGGVLSSFSGTVKYNGSSYPFPTTSETPRVVYNSRTDKPWPVALYLTPVSSAGGVAIKAGSLIAVLILRQTNNYNSDDFQFVWNIYANNDVPVPTGGCDVSARDVTVTLPDYPGSVPIPLTVYCAKSQNLGYYLSGTTADAGNSIFTNTASFSPAQGVGVQLTRNGTIIPANNTVSLGAVGTSAVSLGLTANYARTGGQVTAGNVQSIIGVTFVYQ
# B3: V154P: point mutation V154P engineered into the FimH-j96 and FimH-f18 variants (protein)
# chain: FACKTANGTAIPIGGGSANVYVNLAPAVNVGQNLVVDLSTQIFCHNDYPETITDYVTLQRGSAYGGVLSSFSGTVKYNGSSYPFPTTSETPRVVYNSRTDKPWPVALYLTPVSSAGGVAIKAGSLIAVLILRQTNNYNSDDFQFVWNIYANNDPVVPTGGCDVSARDVTVTLPDYPGSVPIPLTVYCAKSQNLGYYLSGTTADAGNSIFTNTASFSPAQGVGVQLTRNGTIIPANNTVSLGAVGTSAVSLGLTANYARTGGQVTAGNVQSIIGVTFVYQ
# B4: FimH-f18-V156P: FimH-f18 with the V156P point mutation in the linker chain (protein)
# chain: FACKTANGTAIPIGGGSANVYVNLAPAVNVGQNLVVDLSTQIFCHNDYPETITDYVTLQRGSAYGGVLSSFSGTVKYNGSSYPFPTTSETPRVVYNSRTDKPWPVALYLTPVSSAGGVAIKAGSLIAVLILRQTNNYNSDDFQFVWNIYANNDVVPPTGGCDVSARDVTVTLPDYPGSVPIPLTVYCAKSQNLGYYLSGTTADAGNSIFTNTASFSPAQGVGVQLTRNGTIIPANNTVSLGAVGTSAVSLGLTANYARTGGQVTAGNVQSIIGVTFVYQ
# B5: V156P: point mutation V156P engineered into the FimH-j96 and FimH-f18 variants (protein)
# chain: FACKTANGTAIPIGGGSANVYVNLAPAVNVGQNLVVDLSTQIFCHNDYPETITDYVTLQRGSAYGGVLSSFSGTVKYNGSSYPFPTTSETPRVVYNSRTDKPWPVALYLTPVSSAGGVAIKAGSLIAVLILRQTNNYNSDDFQFVWNIYANNDVVPPTGGCDVSARDVTVTLPDYPGSVPIPLTVYCAKSQNLGYYLSGTTADAGNSIFTNTASFSPAQGVGVQLTRNGTIIPANNTVSLGAVGTSAVSLGLTANYARTGGQVTAGNVQSIIGVTFVYQ
# B6: FimH-j96-V156P: FimH-j96 with the V156P point mutation in the linker chain (protein)
# chain: FACKTANGTAIPIGGGSANVYVNLAPAVNVGQNLVVDLSTQIFCHNDYPETITDYVTLQRGSAYGGVLSSFSGTVKYNGSSYPFPTTSETPRVVYNSRTDKPWPVALYLTPVSSAGGVAIKAGSLIAVLILRQTNNYNSDDFQFVWNIYANNDVVPPTGGCDVSARDVTVTLPDYPGSVPIPLTVYCAKSQNLGYYLSGTTADAGNSIFTNTASFSPAQGVGVQLTRNGTIIPANNTVSLGAVGTSAVSLGLTANYARTGGQVTAGNVQSIIGVTFVYQ
# Experiments:
# [1] = system: guinea pig red blood cells (RBCs); experiment: Parallel plate flow chamber, RBCs on carpet of FimH-expressing E. coli; type: cell-based; settings: low shear, 0.01 to 0.14 dynes/cm^2
# Protocol: Bacteria-coated dishes were prepared as follows: 35 mm tissue culture dishes were incubated with 20 μg/ml RNAse B in 0.02 M bicarbonate buffer for 1 hr at 37° C. and washed three times in PBS with 0.1% BSA (PBS-BSA). The dishes were then incubated with 200 μl PBS-BSA containing 108 colony-forming units of E. coli for 1 hr at 37° C. and washed three times. […] The dishes were then placed under a Glycotech parallel plate flow chamber with a size B gasket (2.5 cm×0.25 cm×250 μm) and sealed with vacuum. A Harvard model #975 pulse-free syringe pump was used to pump fluid through the chamber. […]
# RBC movement was recorded using phase contrast microscopy with a 20× objective, a CCD camera, and Metamorph video imaging software by Universal Imaging. Videos were recorded at 1 frame every 2 s for a total of 3 min at each shear rate. […] The average velocity for each cell was calculated from these positions over the 3 min at each shear. […] We only analyzed cells that were attached and in the field of view at the start of the 3 min time frame. The off-rate of RBCs was calculated from the X, the percent of original RBCs remaining bound at time t, using the formula k=1/t·ln(1/X), and using t=3 min. […]
# [2] = system: bovine RNAse B (trimannose); experiment: Bacterial adhesion to bovine RNAse B-coated microplate (trimannose), static; type: binding; settings: mutations in FimH-j96 and FimH-f18
# Protocol: (§1) Assays of bacterial adhesion to Man1-BSA and bovine RNAseB immobilized in 96-well plates were carried out as described previously (Sokurenko et al., 1995). Briefly, Man1-BSA and bovine RNAseB were dissolved at 20 μg/ml in 0.02 M bicarbonate buffer, and 100 μl aliquots were incubated in microtiter wells for 1 hr at 37° C. The wells were then washed three times with PBS and quenched with 0.1% BSA in PBS. 3H-thymidine-labeled bacteria were added in 0.1% BSA in PBS and incubated for 40 min at 37° C. without shaking to achieve saturation, and the wells were then washed with PBS. The individual wells were subjected to scintillation counting. The density of bacteria used in all assays was 5×10^7 colony forming units per 100 μl. RBC rosette-formation assay was performed by mixing equal amounts of serially diluted bacterial suspensions (starting from OD540 nm=1.0) and a 1% suspension of RBC in U-bottom microtiter plate wells. On-slide agglutination assays were performed by mixing the suspension of RBC and bacteria on a slide surface followed by rocking at ˜3 s^−1.
# [3] = system: guinea pig red blood cells (RBCs); experiment: RBC rosette-formation assay (static agglutination); type: cell-based; settings: static rosette-formation assay
# Protocol: as §1
# Two commonly used RBC agglutination assays were performed that utilize different shear conditions. […] If no agglutination occurs, RBCs fall into a pellet in the bottom of the well (FIG. 15A), while agglutination results in a rosette of RBCs crosslinked by bacteria. […]
Molecule,Adhesion of RBCs to bacterial carpet under low shear [1],Trimannose binding function of point mutants (in words) [2],RBC agglutination under static conditions (in words) [3]
B1,moved much more under low shear stress than those on FimH-j96,,
B2,,entirely conserved,
B3,,entirely conserved,
B4,dramatically stronger adhesion under low shear than did the FimH-f18 parent,,significantly better than the corresponding wild-types
B5,,entirely conserved,
B6,,,significantly better than the corresponding wild-types
